Assay results published in article PMC3991583 (Nature, 2014).
Like-named read-outs stand apart in the source and are kept apart here. Blank lines part the entries; values can stand above or below the binder they belong to.

How the values were obtained:
Assay in all cases: crystal structure
[1] = molecular target: T1, AddA (nuclease-dead);AddB (nuclease-dead) (Bacillus subtilis?;Bacillus subtilis?, UniProt P23478;P23477 1-1232;1-1166, D1172A|D961A)
[2] = molecular target: T2, AddA subunit of the nuclease-dead AddAB mutant (AddA D1172A) (UniProt P23478 1-1232, D1172A)
T2 sequence: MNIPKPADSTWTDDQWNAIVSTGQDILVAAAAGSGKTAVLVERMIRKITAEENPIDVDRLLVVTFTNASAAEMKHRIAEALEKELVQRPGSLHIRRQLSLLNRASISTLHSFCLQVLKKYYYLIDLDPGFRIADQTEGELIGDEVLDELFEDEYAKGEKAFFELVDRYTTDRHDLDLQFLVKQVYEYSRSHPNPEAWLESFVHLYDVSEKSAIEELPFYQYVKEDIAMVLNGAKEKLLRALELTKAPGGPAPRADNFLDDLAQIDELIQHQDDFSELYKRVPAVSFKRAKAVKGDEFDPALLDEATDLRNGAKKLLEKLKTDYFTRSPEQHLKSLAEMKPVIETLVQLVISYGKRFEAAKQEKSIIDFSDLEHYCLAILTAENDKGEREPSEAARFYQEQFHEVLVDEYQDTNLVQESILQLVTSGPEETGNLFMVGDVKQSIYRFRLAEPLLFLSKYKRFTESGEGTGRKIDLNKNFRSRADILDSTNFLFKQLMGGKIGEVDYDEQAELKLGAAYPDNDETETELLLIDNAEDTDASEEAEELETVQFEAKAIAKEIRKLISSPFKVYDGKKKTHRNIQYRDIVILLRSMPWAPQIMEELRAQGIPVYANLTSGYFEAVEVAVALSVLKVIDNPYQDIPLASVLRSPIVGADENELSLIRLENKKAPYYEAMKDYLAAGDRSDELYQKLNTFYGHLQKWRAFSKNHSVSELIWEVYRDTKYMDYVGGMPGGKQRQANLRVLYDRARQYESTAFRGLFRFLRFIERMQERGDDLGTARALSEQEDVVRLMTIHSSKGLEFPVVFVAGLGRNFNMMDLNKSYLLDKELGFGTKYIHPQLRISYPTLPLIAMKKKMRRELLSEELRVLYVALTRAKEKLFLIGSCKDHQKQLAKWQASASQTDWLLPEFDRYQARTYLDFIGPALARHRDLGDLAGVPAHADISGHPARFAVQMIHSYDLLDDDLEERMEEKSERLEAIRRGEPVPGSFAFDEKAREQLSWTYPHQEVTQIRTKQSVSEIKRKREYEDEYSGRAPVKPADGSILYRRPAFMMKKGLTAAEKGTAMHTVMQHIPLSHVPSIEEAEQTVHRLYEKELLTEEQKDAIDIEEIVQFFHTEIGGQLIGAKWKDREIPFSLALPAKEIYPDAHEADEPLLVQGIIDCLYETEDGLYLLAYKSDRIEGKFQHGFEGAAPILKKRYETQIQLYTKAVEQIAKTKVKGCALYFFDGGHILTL

[3] = molecular target: T1, AddA (nuclease-dead);AddB …; remark: listed apart in the source

B1: oligo 023 (Chi, 6 T spacer) (structured_DNA)
DNA: TTTTTTTCTAATGCGAGCACTGCTATTCCCTAGCAGTGCTCGCATTAGATTTTGTTTTTTAGCGG
binding result [1]: binds

binding result [2]: binds
B2: AddB subunit of the nuclease-dead AddAB mutant (AddB D961A) (enzyme)
chain: MGAEFLVGRSGSGKTKLIINSIQDELRRAPFGKPIIFLVPDQMTFLMEYELAKTPDMGGMIRAQVFSFSRLAWRVLQHTGGMSRPFLTSTGVQMLLRKLIEEHKQEFKVYQKASDKSGFTAQVERMLTEFKRYCLEPEDIRRMAESGTASEYRGERVLSEKLHDLSILYQQMEKSLADQYLHSEDYLTLLAEHIPLAEDIKGAHIYVDGFYQFTPQEFRVLEQLMVHAEHITFSLTADKPSYEREPHELELFRMTGKTYYRLHQKAKELNLDITYKELSGTERHTKTPELAHLEAQYEARPAIPYAEKQEALTVMQAANRRAELEGIAREIHALVREKGYRYKDVAILARQPEDYKDMVKEVFADYEIPYFIDGKASMLNHPLIEFIRSSLDVLKGNWRYEAVFRCVKTELLFPLNEPKAKVREQVDQLENYCIAYGIKGDRWTKGDRFQYRRFVSLDDDFAQTDQEIEMENMLNDTRDWIVPPLFQLQKRMKKAKTVQEKAEALYRYLEETDVPLKLDQERQRAEDDGRIIEAQQHQQAWDAVIQLLEEFVEMMGDDEISLDLFQQMIEAGAESLTFSLIPPALDQVFVGNMDLSRMYGTSCTFVLGANDGVLPARPDENGVLSDDDREWLKTIGVELSSGGRERLLDEHFLIYMAFSSPSDRLYVSYPIADAEGKTLLPSMIVKRLEELFPHHKERLLTNEPEQVSDEEQLMYVVNKSVAQSFTASQLRLWTREYDISDVWWSTYNVLMSEQDRLQSKKLFSSLFFRNEVKQLERSVSRQLYGERIQGSVSRMETFNACPFSHFASHGLHLKERQFFKLEAPDIGQLFHSSLKLISDRLREQKLDWRDLTKEQCELFSYDAVERLAPKLQKEILLSSNRHYYVKEKLQKIVTRVSGILSEHAKASGFVPIGLELGFGGKGPLPPLTFQLKNGCTMELVGRIDRVDKAESSKGLLLRIVAYKSSDKGLDLAEVYYGLALQMLTYLDLSITHSADWLGMRATPAGVLYFHIHDPMIQSNLPLGLDEIEQEIFKKFKMKGLLLGDQEVVRLMDTTLQEGRSNIINAGLKKDGSLRSDSAAVGEKEFDLLTKHVRRTFQEAGEQITDGRVSIEPYKMKNKTPCTYCAFKSVCQFDESLEENEYRPLKAEKDKTILEWIKKEADGNEHS

B3: oligo 027 (Chi, 7 T spacer, TTTT 3' extension) (structured_DNA)
DNA: TTTTTTTCTAATGCGAGCACTGCTATTCCCTAGCAGTGCTCGCATTAGATTTTGTTTTTTTAGCGGTTTT
binding result [3]: binds
